This experiment has as its target Su(H)^wt-myc (Suppressor of Hairless, wildtype, pcDNA3.1) (D. melanogaster) (UniProt P28159).
Chain of UniProt P28159 (P28159 whole entry): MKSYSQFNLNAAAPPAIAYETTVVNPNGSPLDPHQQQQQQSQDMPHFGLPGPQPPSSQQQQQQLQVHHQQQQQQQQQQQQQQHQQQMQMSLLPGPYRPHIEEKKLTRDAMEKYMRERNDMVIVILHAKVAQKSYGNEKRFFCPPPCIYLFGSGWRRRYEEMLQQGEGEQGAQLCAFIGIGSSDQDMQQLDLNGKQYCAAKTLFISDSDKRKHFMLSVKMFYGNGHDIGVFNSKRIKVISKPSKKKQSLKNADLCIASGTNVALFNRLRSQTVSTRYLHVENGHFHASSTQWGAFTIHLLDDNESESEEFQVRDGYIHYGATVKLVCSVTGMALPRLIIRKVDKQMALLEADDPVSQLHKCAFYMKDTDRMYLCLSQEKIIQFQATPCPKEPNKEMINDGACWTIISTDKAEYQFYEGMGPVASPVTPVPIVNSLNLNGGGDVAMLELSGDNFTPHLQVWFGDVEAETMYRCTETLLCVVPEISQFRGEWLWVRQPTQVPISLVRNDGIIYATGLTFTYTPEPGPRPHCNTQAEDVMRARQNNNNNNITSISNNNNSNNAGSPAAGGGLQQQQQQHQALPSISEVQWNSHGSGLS

In turn, “ICN^RAMANK (pcDNA-ICN-RAMANK) (domain or fragment)” came in with a Su(H)^wt-myc protein level (Western blot, relative to beta-tubulin) 0-6 h after cycloheximide in HeLa RBPJ^KO cells co-expressing ICN^RAMANK (% of the induced protein) of 70.

Source of the values: PMC9604145.
